# Assay results from the RNAGym collection of RNA variant scans (doi:10.1021/acssynbio.7b00057).
# B1: Pistol ribozyme (parent)
# chain: GGGUCGUUGUUCCAUAAUCGCGUGGAUAUGGCACGCAAGUUUCUACCGGGCACCGUAAAUGUCCGACUGGAGCCGUUCGGGCGGCUAUAAACAGACCUCAGGCCCGAAGCGUGGCGGCACCUGCCGCCGGUGGUAAAAAAGAUCGGAAGAGCACACGUCU
# Variants of: B1
# Assay: aptazyme ON/OFF ratio, guanine; higher = stronger switching; co-transcriptional cleavage with and without guanine
row,Variant,aptazyme ON/OFF ratio
1,GGGUCGUUGAGGUAUAAUCGCGUGGAUAUGGCACGCAAGUUUCUACCGGGCACCGUAAAUGUCCGACUGGAGCCGUUCGGGCGGCUAUAAACAGACCUCAGGCCCGAAGCGUGGCGGCACCUGCCGCCGGUGGUAAAAAAGAUCGGAAGAGCACACGUCU,1.43
2,GGGUCGUAUAGAGAUAAUCGCGUGGAUAUGGCACGCAAGUUUCUACCGGGCACCGUAAAUGUCCGACUGGAGCCGUUCGGGCGGCUAUAAACAGACCUCAGGCCCGAAGCGUGGCGGCACCUGCCGCCGGUGGUAAAAAAGAUCGGAAGAGCACACGUCU,1.19
3,GGGUCGGAGGAUCAUAAUCGCGUGGAUAUGGCACGCAAGUUUCUACCGGGCACCGUAAAUGUCCGACUGGAGCCGUUCGGGCGGCUAUAAACAGACCUCAGGCCCGAAGCGUGGCGGCACCUGCCGCCGGUGGUAAAAAAGAUCGGAAGAGCACACGUCU,1.23
4,GGGUCGAUAAGACAUAAUCGCGUGGAUAUGGCACGCAAGUUUCUACCGGGCACCGUAAAUGUCCGACUGGAGCCGUUCGGGCGGCUAUAAACAGACCUCAGGCCCGAAGCGUGGCGGCACCUGCCGCCGGUGGUAAAAAAGAUCGGAAGAGCACACGUCU,1.1
5,GGGUCGGUGGCUAAUAAUCGCGUGGAUAUGGCACGCAAGUUUCUACCGGGCACCGUAAAUGUCCGACUGGAGCCGUUCGGGCGGCUAUAAACAGACCUCAGGCCCGAAGCGUGGCGGCACCUGCCGCCGGUGGUAAAAAAGAUCGGAAGAGCACACGUCU,1.08
6,GGGUCGUAAUCGAAUAAUCGCGUGGAUAUGGCACGCAAGUUUCUACCGGGCACCGUAAAUGUCCGACUGGAGCCGUUCGGGCGGCUAUAAACAGACCUCAGGCCCGAAGCGUGGCGGCACCUGCCGCCGGUGGUAAAAAAGAUCGGAAGAGCACACGUCU,1.15
7,GGGUCGACAGCGAAUAAUCGCGUGGAUAUGGCACGCAAGUUUCUACCGGGCACCGUAAAUGUCCGACUGGAGCCGUUCGGGCGGCUAUAAACAGACCUCAGGCCCGAAGCGUGGCGGCACCUGCCGCCGGUGGUAAAAAAGAUCGGAAGAGCACACGUCU,1.21
8,GGGUCGACCUCACAUAAUCGCGUGGAUAUGGCACGCAAGUUUCUACCGGGCACCGUAAAUGUCCGACUGGAGCCGUUCGGGCGGCUAUAAACAGACCUCAGGCCCGAAGCGUGGCGGCACCUGCCGCCGGUGGUAAAAAAGAUCGGAAGAGCACACGUCU,1.04
9,GGGUCGCCACGGGAUAAUCGCGUGGAUAUGGCACGCAAGUUUCUACCGGGCACCGUAAAUGUCCGACUGGAGCCGUUCGGGCGGCUAUAAACAGACCUCAGGCCCGAAGCGUGGCGGCACCUGCCGCCGGUGGUAAAAAAGAUCGGAAGAGCACACGUCU,1.41
10,GGGUCGACGCUUGAUAAUCGCGUGGAUAUGGCACGCAAGUUUCUACCGGGCACCGUAAAUGUCCGACUGGAGCCGUUCGGGCGGCUAUAAACAGACCUCAGGCCCGAAGCGUGGCGGCACCUGCCGCCGGUGGUAAAAAAGAUCGGAAGAGCACACGUCU,1.26
11,GGGUCGCAAUCAGAUAAUCGCGUGGAUAUGGCACGCAAGUUUCUACCGGGCACCGUAAAUGUCCGACUGGAGCCGUUCGGGCGGCUAUAAACAGACCUCAGGCCCGAAGCGUGGCGGCACCUGCCGCCGGUGGUAAAAAAGAUCGGAAGAGCACACGUCU,1.15
12,GGGUCGUCUAUCGAUAAUCGCGUGGAUAUGGCACGCAAGUUUCUACCGGGCACCGUAAAUGUCCGACUGGAGCCGUUCGGGCGGCUAUAAACAGACCUCAGGCCCGAAGCGUGGCGGCACCUGCCGCCGGUGGUAAAAAAGAUCGGAAGAGCACACGUCU,1.06
13,GGGUCGUUCUCCCAUAAUCGCGUGGAUAUGGCACGCAAGUUUCUACCGGGCACCGUAAAUGUCCGACUGGAGCCGUUCGGGCGGCUAUAAACAGACCUCAGGCCCGAAGCGUGGCGGCACCUGCCGCCGGUGGUAAAAAAGAUCGGAAGAGCACACGUCU,1.18
14,GGGUCGAGAAAACAUAAUCGCGUGGAUAUGGCACGCAAGUUUCUACCGGGCACCGUAAAUGUCCGACUGGAGCCGUUCGGGCGGCUAUAAACAGACCUCAGGCCCGAAGCGUGGCGGCACCUGCCGCCGGUGGUAAAAAAGAUCGGAAGAGCACACGUCU,1.45
15,GGGUCGUGACAACAUAAUCGCGUGGAUAUGGCACGCAAGUUUCUACCGGGCACCGUAAAUGUCCGACUGGAGCCGUUCGGGCGGCUAUAAACAGACCUCAGGCCCGAAGCGUGGCGGCACCUGCCGCCGGUGGUAAAAAAGAUCGGAAGAGCACACGUCU,1.22
16,GGGUCGAUACAAUAUAAUCGCGUGGAUAUGGCACGCAAGUUUCUACCGGGCACCGUAAAUGUCCGACUGGAGCCGUUCGGGCGGCUAUAAACAGACCUCAGGCCCGAAGCGUGGCGGCACCUGCCGCCGGUGGUAAAAAAGAUCGGAAGAGCACACGUCU,1.19
17,GGGUCGCGUGAGGAUAAUCGCGUGGAUAUGGCACGCAAGUUUCUACCGGGCACCGUAAAUGUCCGACUGGAGCCGUUCGGGCGGCUAUAAACAGACCUCAGGCCCGAAGCGUGGCGGCACCUGCCGCCGGUGGUAAAAAAGAUCGGAAGAGCACACGUCU,1.3
18,GGGUCGGGGCUAAAUAAUCGCGUGGAUAUGGCACGCAAGUUUCUACCGGGCACCGUAAAUGUCCGACUGGAGCCGUUCGGGCGGCUAUAAACAGACCUCAGGCCCGAAGCGUGGCGGCACCUGCCGCCGGUGGUAAAAAAGAUCGGAAGAGCACACGUCU,1.45
